In publication PMC10835923:

Tests used:
[1] = biological target: CXCR3 on primary human T lymphocytes stimulated with PHA and IL-2 (human (endogenous in primary T lymphocytes)) (UniProt P49682)
[2] = biological target: CXC chemokine receptor 3 isoform A (CXCR3A) on transfected CHO cells (UniProt P49682)

CXCR3 internalization: mean MFI of surface CXCR3 on PHA- and IL-2-stimulated primary T lymphocytes, as % of medium-treated cells, after 45 nM (90.1%) or 90 nM (83.3%) for 10 min at 37 °C [1]: 90.1%
Substance: C-terminally truncated CXCL10(1-73) (from UniProt P02778 22-94) (ligand)
desensitization: reduction of the calcium increase to 3 nM CXCL10(1-77) in CXCR3A-transfected CHO cells when 45 nM (69.9%) or 90 nM (72.2%) CXCL10(1-73) was added 100 s before [2]: 72.2%
